From patent US12247058 (Bristol-Myers Squibb, dated 2025) come the findings set out here.

Non-standard residues stand in square brackets, D forms with d. Phe(4-Ac) = CC(=O)c1ccc(C[C@H](N)C(=O)O)cc1

What all share (assay): cell-based or functional assay
Experiment [1] concerns the target T1, human β-klotho with a C-terminal FLAG tag, stably expressed in a clonal HEK-293 cell line (human, UniProt Q86Z14 1-1044).
T1 sequence: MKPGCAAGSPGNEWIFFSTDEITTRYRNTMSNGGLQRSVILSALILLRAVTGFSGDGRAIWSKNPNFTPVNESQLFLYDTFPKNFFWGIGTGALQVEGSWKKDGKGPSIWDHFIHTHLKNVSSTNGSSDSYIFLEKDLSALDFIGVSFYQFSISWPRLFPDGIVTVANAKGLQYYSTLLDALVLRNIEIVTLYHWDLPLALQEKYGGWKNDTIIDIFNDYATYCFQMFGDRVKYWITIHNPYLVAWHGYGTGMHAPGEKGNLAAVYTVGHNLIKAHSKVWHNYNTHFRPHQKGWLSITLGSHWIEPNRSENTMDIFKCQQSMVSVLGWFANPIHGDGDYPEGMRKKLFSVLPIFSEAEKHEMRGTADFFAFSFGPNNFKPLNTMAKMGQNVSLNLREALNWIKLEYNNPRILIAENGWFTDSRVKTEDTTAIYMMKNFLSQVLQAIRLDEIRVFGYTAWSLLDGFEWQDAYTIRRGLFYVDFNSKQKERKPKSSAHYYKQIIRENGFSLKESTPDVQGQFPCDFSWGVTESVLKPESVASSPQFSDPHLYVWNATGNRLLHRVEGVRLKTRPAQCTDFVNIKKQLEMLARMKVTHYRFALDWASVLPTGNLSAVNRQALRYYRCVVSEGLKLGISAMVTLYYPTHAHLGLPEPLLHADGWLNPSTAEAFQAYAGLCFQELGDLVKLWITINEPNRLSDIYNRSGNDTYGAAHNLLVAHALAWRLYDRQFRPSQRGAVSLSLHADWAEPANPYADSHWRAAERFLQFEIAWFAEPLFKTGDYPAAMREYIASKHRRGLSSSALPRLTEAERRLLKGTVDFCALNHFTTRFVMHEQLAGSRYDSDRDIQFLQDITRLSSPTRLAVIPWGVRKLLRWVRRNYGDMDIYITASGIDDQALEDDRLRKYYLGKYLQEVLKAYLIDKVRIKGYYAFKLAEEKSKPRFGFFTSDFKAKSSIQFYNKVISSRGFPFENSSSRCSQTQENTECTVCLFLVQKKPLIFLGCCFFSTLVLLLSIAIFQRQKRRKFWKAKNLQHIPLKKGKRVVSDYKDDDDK

The target in experiment [2] is T2, human β-klotho, stably co-expressed with the Elk1-luciferase trans-reporter in HEK293 cells (HEK Luc Clone2) (human, UniProt Q86Z14 1-1044).
T2 sequence: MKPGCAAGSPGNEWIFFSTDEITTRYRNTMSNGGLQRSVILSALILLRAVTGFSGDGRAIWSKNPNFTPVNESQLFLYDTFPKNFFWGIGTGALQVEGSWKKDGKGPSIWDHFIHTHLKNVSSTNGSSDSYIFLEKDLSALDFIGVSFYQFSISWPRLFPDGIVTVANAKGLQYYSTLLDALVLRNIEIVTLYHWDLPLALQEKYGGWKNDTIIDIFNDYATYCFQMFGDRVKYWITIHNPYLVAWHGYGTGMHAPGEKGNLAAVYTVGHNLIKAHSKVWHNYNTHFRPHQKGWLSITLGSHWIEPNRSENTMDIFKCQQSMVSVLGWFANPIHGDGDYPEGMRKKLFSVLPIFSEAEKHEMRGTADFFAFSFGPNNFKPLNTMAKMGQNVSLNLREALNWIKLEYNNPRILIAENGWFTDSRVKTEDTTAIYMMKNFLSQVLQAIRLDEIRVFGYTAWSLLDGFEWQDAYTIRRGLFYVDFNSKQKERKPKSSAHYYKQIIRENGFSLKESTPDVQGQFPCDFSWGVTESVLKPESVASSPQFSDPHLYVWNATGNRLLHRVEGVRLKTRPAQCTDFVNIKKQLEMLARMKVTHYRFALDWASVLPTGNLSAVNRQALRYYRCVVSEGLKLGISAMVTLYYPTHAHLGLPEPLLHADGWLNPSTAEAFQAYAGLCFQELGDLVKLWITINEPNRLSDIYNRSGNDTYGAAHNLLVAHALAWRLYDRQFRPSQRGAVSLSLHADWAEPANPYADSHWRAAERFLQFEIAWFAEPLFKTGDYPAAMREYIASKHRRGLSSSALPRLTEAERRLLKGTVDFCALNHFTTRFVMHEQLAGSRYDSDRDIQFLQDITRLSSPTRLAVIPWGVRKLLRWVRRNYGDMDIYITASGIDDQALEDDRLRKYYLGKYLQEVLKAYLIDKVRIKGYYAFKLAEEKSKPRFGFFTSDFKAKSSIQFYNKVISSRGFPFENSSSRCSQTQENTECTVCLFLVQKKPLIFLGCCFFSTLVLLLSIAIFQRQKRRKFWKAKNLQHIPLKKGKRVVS

In experiment [3] the target is T2, human β-klotho, stably co-expressed …. The source holds these as a separate data set.
The target of experiment [4] is T1, human β-klotho with a C-terminal FLAG …. The source holds these as a separate data set.

B1: Compound 32 (Non-Pegylated Control) (ligand)
chain: MHHHHHHPIPDSSPLLQFGGQVRQRYLYTDDAQQTEAHLEIREDGTVGGAADQSPESLLQLKALKPGVIQILGVKTSRFLCQRPDGALYGSLHFDPEACSFRELLLEDGYNVYQSEAHGLPLHLPGNKSPHRDPAPRGPARFLPLPGLPPALPEPPGILAPQPPDVGSSDPLSMVGPSQGRSPSYAS
As for B1, the “EC50 in the pERK assay” value in experiment [1] came out at 8 nM.

B2: Pegylated Compound 2 (ligand)
chain: MHPIPDSSPLLQFGGQVRQRYLYTDDAQQTEAHLEIREDGTVGGAADQSPESLLQLKALKPGVIQILGVKTSRFLCQRPDGALYGSLHFDPEACSFRELLLEDGYNVY[Phe(4-Ac)](PEG about 30 kDa)SEAHGLPLHLGSGRGPARFLPLPGLPPAPPEPPGILAPQPPDVGSSDPLSMVEPSQGRSPSYAS
Regarding B2, the “EC50 in the pERK assay” value in experiment [1] stood at 28 nM. In experiment [2], the “EC50 (geometric mean), 5 hour Elk1-luciferase assay” value was 5.4 nM and the “pEC50, 5 hour Elk1-luciferase assay” value stood at 8.27 log M. Besides, the “Geometric Mean EC50, Elk1-luciferase assay” value in experiment [3] turned out to be 5.9 nM.

B3: Compound 181 [Fc(hIgG1f_1.1_186)-L7-FGF21 (Cmp. 2)] (Fc fusion)
chain: EPKSSDKTHTCPPCPAPEAEGAPSVFLFPPKPKDTLMISRTPEVTCVVVDVSHEDPEVKFNWYVDGVEVHNAKTKPREEQYNSTYRVVSVLTVLHQDWLNGKEYKCKVSNKALPSSIEKTISKAKGQPREPQVYTLPPSREEMTKNQVSLTCLVKGFYPSDIAVEWESNGQPENNYKTTPPVLDSDGSFFLYSKLTVDKSRWQQGNVFSCSVMHEALHNHYTQKSLSLSPGKGGGGGSGGGSGGGGSHPIPDSSPLLQFGGQVRQRYLYTDDAQQTEAHLEIREDGTVGGAADQSPESLLQLKALKPGVIQILGVKTSRFLCQRPDGALYGSLHFDPEACSFRELLLEDGYNVYQSEAHGLPLHLGSGRGPARFLPLPGLPPAPPEPPGILAPQPPDVGSSDPLSMVEPSQGRSPSYAS
For the molecule B3, the “Geometric Mean EC50, Elk1-luciferase assay” value in experiment [3] worked out at 0.8 nM.

B4: Pegylated Compound 1 (ligand)
chain: MHPIPDSSPLLQFGGQVRQRYLYTDDAQQTEAHLEIREDGTVGGAADQSPESLLQLKALKPGVIQILGVKTSRFLCQRPDGALYGSLHFDPEACSFRELLLEDGYNVY[Phe(4-Ac)](PEG 30 kDa)SEAHGLPLHLPGNKSPHRDPAPRGPARFLPLPGLPPAPPEPPGILAPQPPDVGSSDPLSMVGPSQGRSPSYAS
With B4, the “pERK EC50” value in experiment [4] was found to be 6.7 nM. In addition, the “EC50 in the pERK assay” value in experiment [1] was 14 nM. For the same molecule, in experiment [2], the “EC50 (geometric mean), 5 hour Elk1-luciferase assay” value was 3.6 nM and the “pEC50, 5 hour Elk1-luciferase assay” value worked out at 8.44 log M.

B5: Pegylated Compound 22 (ligand)
chain: MHPIPDSSPLLQFGGQVRQRYLYTDDAQQTEAHLEIREDGTVGGAADQSPESLLQLKALKPGVIQILGVKTSRFLCQRPDGALYGSLHFDPEACSFRELLLEDGYNVY[Phe(4-Ac)](PEG 30 kDa)SEAHGLPLHLSGGPAPRGPARFLPLPGLPPAPPEPPGILAPQPPDVGSSDPLSMVEPSQGRSPSYAS
As for B5, in experiment [1], the “EC50 in the pERK assay” value is 36 nM.
